Laboratory results reported in patent US20250027068.

Target: pooled human IgG (human IgG1, 2, 3 and 4)

| Protein | Enzyme Activity Endpoint Assay: Fab′2 | Enzyme Activity Endpoint Assay: Fc | Enzyme Activity Endpoint Assay: IgG | Enzyme Activity Endpoint Assay: scIgG |
| --- | --- | --- | --- | --- |
| PRT-556 (protein) MANQEIRYSKAKPKVITSVWTKGVTPPTQFTYNEDVFHAPYLPNQGWYDITKTFNGKDDLLCGAATAGNMLHWWFDQNKEQIERYLKEHPEKQKINFNGEQMFDVKEAIDTKDSQTNSKLFNYFKDKAFPYLSTKHLGVFPDHVIDMFINGYRLSLTNHGPTPVKEQNKDPRGGIFDDVFTRGDQSKLLTSRHDFKEKTLKEISDLIKQELKEGKALGLSHTYANVRINHVINLWGADFDAEGNLVAIYVTDSDSNASIGMKKYYVGVNSAGKVAISAKEIEDDNIGAQVLGLFTLSTGKDIWEKTNLEHHHHHH | 570 ng/µL | 351 ng/µL | 16 ng/µL | 200 ng/µL |
| PRT-271 (protein) MVTSVWTKGVTPPTDFIYGEDVLHAPYKAGQGWYDITKLFNGKDDLLCGAATAGNMLHWWFDQNKEQIENYLKKHPEKQKINFNGEQMFDVKEAIDTKDSQLDSKLFDYFKEKAFPYLSTKHLGVFPDHVIDMFINGYRLSLTNHGPTPVKRGSKDPRGGIFDAVFTRGDQSKLLTNRHDLKNKTLKEISDLIKQELTEGKALGISHTYANVRINHVINLWGADFDAEGNLEAIYVTDSDSNPSIGMKKYFVGVNSSGKVAISAKEIEEDNIGAQVLGLFTLSTGQDIWNQTN | 563 ng/µL | 322 ng/µL | 0 ng/µL | 0 ng/µL |
| PRT-541 (protein) MANQEIRYSKNENPNVTIKWVHGIGEPTQAEKEKIEFWWYETTTTKFFNNRKVDHLGDGNQCWAKTDSNMLHWWFVQNEENINQYIAKKNITGKINFNGEQMFDVKEGIDDNQEKEKSYIANTFRTKKAHNLSTKHKGDYIINGLSWYLYGLNNFKIAHGPTPVKKKPKFYGPALFKDVFSRGDGNTPIIVETDFKEYTKKEFEDTLSAALDSKKAIGINIYGSNVDYQHAITLWGAAFDEEENIIAIYVVDNNFKFENRIFPYGIWYQKEGRPYLFNYEINSFVKNRYVGEVTTLDKGEAQWQETNLEHHHHHH | 0 ng/µL | 0 ng/µL | 854 ng/µL | 3 ng/µL |
| PRT-247 (protein) MVTSVWTKGVTPPANFTQGEDVFHAPYVANQGWYDITKLFNGKDDLLCGAATAGNMLHWWFDQNKDQIKRYLEEHPEKQKINFNGEQMFDVKEAIDTKNHQLDSKLFEYFLEKAFPYLSTKHLGVFPDHVIDMFINGYRLSLTNHGPTPVKEGSKDPRGGIFDAVFTRGDQSKLLTSRHDFKEKNLKEISDLIKKELTEGKALGLSHTYANVRINHVINLWGADFDSNGNLKAIAVTDSDSNASIGMKKYFVGVNSSGKVAISAKEIKEDNIGAQVLGLFTLSTGQDSWNQTN | 0 ng/µL | 81 ng/µL | 308 ng/µL | 279 ng/µL |
| PRT-255 (protein) MVTSVWTKGVTPPTNFTYGEDVLHAPYVANQGWYDITKTFNGKDDLLCGAATAGNMLHWWFDQNKEQIENYLKKHPEKQKINFNGEQMFDVKEAIDTKDSQLDSKLFEYFLEKAFPNLSTKHLGVFPDHVIDMFINGYRLSLLNHGPTPVKRGSKDPRGGIFDAVFTRGDQSKLLTNRHDFKEKTLKEISDLIKQELTEGKALGISHTYANVGINHVINLWGADFDAEGNLEAIAVTDSDSNASIGMKKYFVGVNSSGKVAISAKEIEEDNIGAQVLGLFTLSTGQDIWNQTN | 58 ng/µL | 178 ng/µL | 75 ng/µL | 525 ng/µL |
| PRT-263 (protein) MVTSVWTKGVTPPTNFTYGEDVLHAPYVANQGWYDITKLFNGKDNLLCGAATAGNMLHWWFDQNKEQIENYLKKHPEKQKINFNGEQLFDVKEAIDTKDSQLDSKLFEYFLEKAFPNLSTKHLGVFPDHVIDMFINGYRLSLLNHGPTPVKRGSKDKRGGIFDAVFTRGVQSKLLTNRHDFKEKTLKEISDLIKQELTEGKALGISHTYANGRINHVINLWGADFDAEGNLEAIAVTDSDTNASIGMKKYFVGVNSSGKVAISAKEIEEDNIGAQVLGLFTLSTGQDIWNQTN | 0 ng/µL | 27 ng/µL | 986 ng/µL | 0 ng/µL |
| PRT-575 (protein) MANQEIRYSEETPKTITSVWTKGVTPPTDFIYNEDVLHAPYIANQGWYDITKTFNGKDDLLCGAATAGNMLHWWFDQNKEQIERYLKKHPEKQKINFNGEQMFDVKEAIDTKDSQTNSKLFEYFKDKAFPYLSTKHLGVFPDHVIDMFINGYRLSLTNHGPTPVKEQTKDPRGGIFDAVFTRGDQSKLLTSRHDFKEKTLKEISDLIKQELTEGKALGLSHTYANVRINHVINLWGADFDAEGNLEAIYVTDSDSNASIGMKKYYVGVNSAGKVAISAKEIEGDNIGAQVLGLFTLSTGKDIWEQTNLEHHHHHH | 254 ng/µL | 309 ng/µL | 94 ng/µL | 607 ng/µL |
| PRT-574 (protein) MANQEIRYSEETPKTITSVWTKGVTPPTDFIYNEDVLHAPYIANQGWYDITKTFNGKDDLLCGAATAGNMLHWWFDQNKEQIERYLKKHPEKQKINFNGEQMFDVKEAIDTKDSQTNSKLFEYFKDKAFPYLSTKHLGVFPDHVIDMFINGYRLSLTNHGPTPVKEQTKDPRGGIFDAVFTRGDQSKLLTSRHDFKEKTLNEISDLIKQELTEGKALGLSHTYANVRINHVINLWGADFDAEGNLEAIYVTDSDSNASIGMKKYYVGVNSAGKVAISAKEIEGDNIGAQVLGLFTLSTGKDIWEQTNLEHHHHHH | 660 ng/µL | 357 ng/µL | 0 ng/µL | 227 ng/µL |
| PRT-580 (protein) MANQEIRYSEETPKTITSVWTKGVTPPTDFIKNEDVFHAPYVANQGWYDITKTFNGKDDLLCGAATAGNMLHWWFDQNKEEIERYLKKHPEKQKINFNGEQMFDVKEAIDTKDSQTNSKLFEYFKDKAFPYLSTKHLGVFPDHVIDMFINGYRLSLTNHGPTPVKRGTKDPRGGIFDAVFTRGDQSKLLTSRHDFKEKTLKEISDLIKQELQEGKALGLSHTYANVRINHVINLWGADFDSEGNLEAIYVTDSDSNASIGMKKYYVGVNSAGKVAISAKEIEDDNIGAQVLGLFTLSTGKDIWEQTNLEHHHHHH | 566 ng/µL | 282 ng/µL | 0 ng/µL | 0 ng/µL |
| PRT-567 (protein) MANQEIRYSEETPSTITSVWTKGVTPPTDFIQNEDVLHAPYIANQGWYDITKTFNGKDDLLCGAATAGNMLHWWFDQNKEQIENYLKKHPEKQKINFNGEQMFDVKEAIDTKDSQTDSALFEYFKDKAFPYLSTKHLGVFPDHVIDMFINGYRLSLTNHGPTPVKRGTKDPRGGIFDAVFTRGDQSKLLTSRHDFKEKTLNEISDLIKQELTEGKALGLSHTYANVRINHVINLWGADFNAEGNLEAIYVTDSDSNASIGMKKYYVGVNSAGKVAISAKEIEGDNIGAQVLGLFTLSTGQDIWNQTNLEHHHHHH | 385 ng/µL | 297 ng/µL | 65 ng/µL | 372 ng/µL |
| PRT-573 (protein) MANQEIRYSEETPSTITSVWTKGVTPPTQFIQNEDVLHAPYIANQGWYDITKTFNGKDDLLCGAATAGNMLHWWFDQNKEQIENYLKKHPEKQKINFNGEQMFDVKEAIDTKDSQTDSALFSYFKDKAFPYLSTKHLGVFPDHVIDMFINGYRLSLTNHGPTPVKRQTKDPRGGIFDAVFTRGDQSKLLTSRHDFKEKTLNEISQLIKQELTEGKALGLSHTYANVRINHVINLWGADFNAEGNLEAIYVTDSDSNASIGMKKYYVGVNSAGKVAISAKEIEGDNIGAQVLGLFTLSTGQDIWQQTNLEHHHHHH | 759 ng/µL | 409 ng/µL | 0 ng/µL | 0 ng/µL |
| PRT-599 (protein) MANQEIRYSEETPSTITSVWTKGVTPPTDFIQNEDVLHAPYIANQGWYDITKTFNGKDDLLCGAATAGNMLHWWFDQNKEQIENYLKKHPEKQKINFNGEQMFDVKEAIDTKDSQTDSALFEYFKDKAFPYLSTKHLGVFPDHVIDMFINGYRLSLTNHGPTPVKRGTKDPRGGIFDAVFTRGDQSKLLTSRHDFKEKTLNEISDLIKQELTEGKALGLSHTYANVRINHVINLWGADFNAEGNLEAIYVTDSDSNASIGMKKYYVGVNSAGKVAISAKEIKGDNIGAQVLGLFTLSTGQDIWNQTNLEHHHHHH | 930 ng/µL | 310 ng/µL | 0 ng/µL | 0 ng/µL |
| PRT-538 (protein) MANQEIRYSSDSEWANKKVWVYGITPPEEGAWKYSTYYLPWKKEYGWYDCNKRNPTADGMMCWAATASNLLHWWIAQNKEYIDLYGDKYKGPDKINFNGEQMFDVKEYIDPLDKPQESDIFQCFIDKSFADLSTKHEAGYGDEGINWFIHGIIPSSPAHGPTPVKLRKPYNPAGYFKDVFPRGDGVKLLSNNGDFKELGKERFNETIKDALKNKKGIGLSIGPVNVRSGHVVTMWGAEFDENGDVSYIYIADNNDRWGVGCIRYQIVYEEGGTYTCYKTEIINEDRPIPINRLVTLELGEEYWKQTNLEHHHHHH | 5 ng/µL | 0 ng/µL | 1160 ng/µL | 0 ng/µL |
| PRT-528 (protein) MANQEIRYSEETPKTITSVWTKGVTPPTDFIQNEDVLHAPYIANQGWYDITKTFNGKDDLLCGAATAGNMLHWWFDQNKEEIENYLKKHPEKQKINFNGEQMFDVKEAIDTKDSQTDSALFEYFKDKAFPNLSTKHLGVMPDLVLDMFINGYYLSLGKHGPTPVKRGTKDPRGGIFDAVFTRGDQSKLLTARHDFKEKTLNEISDLIKQELTEGKALALSHTYANVRINHVINLWGADFNSEGNLEAIYVTDSDSNASIGMKKYYVGVNAAGKVAISAKEIEGDNIGAQVLGLFTLSTGQDIWEQTNLEHHHHHH | 14 ng/µL | 114 ng/µL | 354 ng/µL | 691 ng/µL |
